Drawing on the supplement of paper PMC9732359, this text covers protein stability index for 24 sequences.

This data set can be described thus: protein stability index of a GFP-peptide fusion (yeast GPS) (PSI 1-4); higher = more stable; sorted into four equal gates, so the index is relative within each strain. The procedure, abridged:
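For each peptide, the protein stability index sums the read frequency in every gate after multiplying it by the gate number. Read frequencies came from plasmids that were PCR-amplified from each gate and Illumina-sequenced, with reads assigned to strains by barcodes. The gates were four equal bins of GFP/Cherry fluorescence ratio applied to mid-log yeast in leucine-free medium carrying a pooled library of tiled 17-residue yeast protein peptides fused downstream of GFP on a Cherry-expressing plasmid.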

± gives the uncertainty stated by the source.

As for TYQTERFTKFSDTLKEF [YDL116W/NUP84], the protein stability index (doa10∆) worked out at 2.38 ± 0.047, the protein stability index (pdr5∆) came to 2.31 ± 0.056, the protein stability index (san1∆) amounted to 1.73 ± 0.12 and the protein stability index (ubr1∆) is 1.97 ± 0.046.

With VAADGKLVTYIVKFKQK [YLR335W/NUP2], the protein stability index by setting is: (doa10∆) 2.17 ± 0.059; (pdr5∆) 2.11 ± 0.054; (san1∆) 2.09 ± 0.064; (ubr1∆) 2.02 ± 0.05.

For the sequence VAAKWNTSLISLFTYFR [PRP8], the protein stability index is, setting by setting: (doa10∆) 1.7 ± 0.064; (pdr5∆) 1.97 ± 0.095; (san1∆) 1.74 ± 0.18; (ubr1∆) 2 ± 0.039.

In the case of VAARMFHILLKLILEWV [ECM29], the protein stability index is, setting by setting: (doa10∆) 1.42 ± 0.17; (pdr5∆) 1.64 ± 0.12; (san1∆) 1.91 ± 0.12; (ubr1∆) 2.1 ± 0.094.

On to VAATNTPIIFIGTGEHI [SRP54], for which the protein stability index is, setting by setting: (doa10∆) 2.17 ± 0.1; (pdr5∆) 3.03 ± 0.12; (san1∆) 2.26 ± 0.083; (ubr1∆) 2.6 ± 0.071.

As for VAEGKSKQDASPKPYAV [RPL8A], the protein stability index is, setting by setting: (doa10∆) 3.04 ± 0.12; (pdr5∆) 3.29 ± 0.059; (san1∆) 3.04 ± 0.07; (ubr1∆) 3.02 ± 0.058.

Take VAEIVQNVISLGSLTVE [RPC82]: the protein stability index was determined as 1.97 ± 0.068 (doa10∆), 2.23 ± 0.098 (pdr5∆), 1.97 ± 0.14 (san1∆) and 1.68 ± 0.11 (ubr1∆).

VAFVCSPISDSRDELIR [RPN10] registered a protein stability index (doa10∆) of 2.42 ± 0.093, a protein stability index (pdr5∆) of 2.56 ± 0.11, a protein stability index (san1∆) of 1.67 ± 0.12 and a protein stability index (ubr1∆) of 2.34 ± 0.099.

In the case of VAGAGAASGAAAAGGDA [RPP1B], the protein stability index was found to be 3.09 ± 0.18 (doa10∆), 2.79 ± 0.092 (pdr5∆), 3.22 ± 0.22 (san1∆) and 2.62 ± 0.078 (ubr1∆).

As for VAGGVAGGEAGEAEAEK [RPP1A], the protein stability index reads like this: (pdr5∆) 3.26 ± 0.17; (ubr1∆) 3.45 ± 0.13.

VAIQQGDIKPEFSPRLH [YML103C/NUP188]: the protein stability index runs as follows: (doa10∆) 2.45 ± 0.11; (pdr5∆) 2.84 ± 0.096; (san1∆) 3.07 ± 0.099; (ubr1∆) 2.83 ± 0.068.

Consider VAKTAPNSNKTHTEQNN [SNF2], for which the protein stability index amounted to 2.82 ± 0.04 (doa10∆), 3.07 ± 0.052 (pdr5∆), 3.01 ± 0.033 (san1∆) and 3.06 ± 0.037 (ubr1∆).

In the case of VAKVDEEGRAIPGEYIT [RPS21B], the protein stability index reads like this: (doa10∆) 2.5 ± 0.095; (pdr5∆) 2.52 ± 0.12; (san1∆) 2.44 ± 0.1; (ubr1∆) 2.77 ± 0.065.

On to VANSPNKRLDVIDGKLP [YDL088C/ASM4], for which the protein stability index by setting is: (doa10∆) 3.03 ± 0.068; (pdr5∆) 2.8 ± 0.067; (san1∆) 2.42 ± 0.094; (ubr1∆) 2.11 ± 0.058.

On to VAQLKPFFKYIDDANVT [RPC37], for which the protein stability index came to 2.81 ± 0.078 (doa10∆), 2.9 ± 0.07 (pdr5∆), 2.9 ± 0.062 (san1∆) and 2.8 ± 0.07 (ubr1∆).

With VARTFWASKYGQEYPRI [BRR2], the protein stability index (doa10∆) came out at 2.42 ± 0.15, the protein stability index (pdr5∆) was found to be 2.38 ± 0.17, the protein stability index (san1∆) amounted to 2.32 ± 0.17 and the protein stability index (ubr1∆) came out at 3.06 ± 0.094.

Regarding VATNIVNEDPIFHPMIH [YML103C/NUP188], the protein stability index amounted to 2.53 ± 0.046 (doa10∆), 2.63 ± 0.045 (pdr5∆), 2.44 ± 0.045 (san1∆) and 2.58 ± 0.038 (ubr1∆).

Regarding VCGIIVKQEDMPFNDQG [RET1], the protein stability index was 3.06 ± 0.16 (doa10∆), 2.87 ± 0.24 (pdr5∆), 2.46 ± 0.26 (san1∆) and 2.49 ± 0.21 (ubr1∆).

As to VDAYRRLENKLSEIESL [SRP68], the protein stability index (doa10∆) turned out to be 1.4 ± 0.078, the protein stability index (pdr5∆) stood at 1.48 ± 0.073, the protein stability index (san1∆) came to 1.57 ± 0.11 and the protein stability index (ubr1∆) came to 1.68 ± 0.062.

For VDDLRPEFAGYSKAAEP [ASC1], the protein stability index (doa10∆) was found to be 3.18 ± 0.23 and the protein stability index (ubr1∆) amounted to 3.67 ± 0.16.

Take VDDSMELCGQIRSERFK [ITC1]: the protein stability index by setting is: (doa10∆) 2.84 ± 0.072; (pdr5∆) 3 ± 0.067; (san1∆) 3.28 ± 0.086; (ubr1∆) 2.94 ± 0.13.

On to VDEPMTSAVELGAIEQI [YJL039C/NUP192], for which the protein stability index (doa10∆) is 3.41 ± 0.3, the protein stability index (pdr5∆) is 3.66 ± 0.17, the protein stability index (san1∆) stood at 3 ± 0.16 and the protein stability index (ubr1∆) came to 2.87 ± 0.28.

For the sequence VDINRLKKGEVSLGTSI [PRE3], the protein stability index is, setting by setting: (doa10∆) 2.21 ± 0.098; (pdr5∆) 1.55 ± 0.063; (san1∆) 2.11 ± 0.081; (ubr1∆) 1.33 ± 0.06.

VDKELLEPGCSVLLHHK [RPT2] registered a protein stability index (doa10∆) of 2.95 ± 0.16, a protein stability index (pdr5∆) of 2.8 ± 0.095, a protein stability index (san1∆) of 2.51 ± 0.17 and a protein stability index (ubr1∆) of 2.66 ± 0.12.
